Laboratory results taken from US20240141039A1 (AGENUS, published 2024).

T1: full-length ECD of human TIGIT (His-tagged) (human)
T1 construct: also called His-tagged human TIGIT; human TIGIT extracellular domain
T1 chain: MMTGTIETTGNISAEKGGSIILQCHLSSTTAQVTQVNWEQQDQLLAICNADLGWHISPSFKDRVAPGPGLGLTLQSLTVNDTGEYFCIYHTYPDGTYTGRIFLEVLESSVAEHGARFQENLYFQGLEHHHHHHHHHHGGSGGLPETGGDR

T2: wild type full-length human TIGIT expressed on cells (human, UniProt Q495A1 22-244)
T2 construct: whole, on cells; also called human TIGIT-CHO; human TIGIT CHO cells
T2 sequence (looked up): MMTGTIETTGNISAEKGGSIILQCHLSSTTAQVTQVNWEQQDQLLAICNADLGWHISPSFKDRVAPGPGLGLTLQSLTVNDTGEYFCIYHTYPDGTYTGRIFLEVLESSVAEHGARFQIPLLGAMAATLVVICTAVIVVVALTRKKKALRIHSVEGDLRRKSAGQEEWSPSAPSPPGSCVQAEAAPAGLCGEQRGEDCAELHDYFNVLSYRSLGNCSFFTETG


Key:
[1] = molecular target: T1, full-length ECD of human TIGIT …; test: SPR Biacore T200, geomean of experiments #1 and #2
Method: Briefly, surface plasmon resonance experiments were performed using a Biacore T200 instrument, and the association rate (kₐ), dissociation rate (kd), and dissociation constant (KD) were calculated from each experiment using a 1:1 binding model with Biacore T200 Evaluation Software.
Multispecific molecules were captured using a 30-sec injection at a flow rate of 10 μl/min to reach about 1000 resonance units (RUs). […] The sensor chip was regenerated between cycles with two 30-sec injections of 10 mM glycine, pH 1.5. Sensorgrams were evaluated and fit to a simple Langmuir 1:1 interaction model using the global data analysis option of BIAevaluation 3.0 software. Data quality was verified by visually inspecting deviations and curve fitting, and by evaluating the parameters of Rₘₐₓ, Chi2, and Tc.

[2] = molecular target: CD8+ T cells (CD3-stimulated; Day 4); test: flow cytometry on activated primary human T cells, gated CD8+, donor 2; PE anti-human IgG detection
Method: A total of 8 dilutions ranging from 50 μg/mL to 0.000005 μg/mL were prepared. After four days, the sample plates were centrifuged for two minutes at 2000 rpm, and supernatants were discarded. Samples were blocked with FcγR Block prepared in FACs buffer at 5 μL per 100 μL test for 10 minutes. Sample plates were then centrifuged for two minutes at 2000 rpm, and the supernatant was discarded. The cells were then re-suspended in 100 μL of anti-TIGIT×CD96 multispecific molecule or a relevant isotype control at the concentrations shown in FIGS. 26A-26F. Sample plates were incubated for 30 minutes at 4° C. Cells were washed by addition of cold sample buffer and centrifuged for two minutes at 2000 rpm, and the supernatant was discarded. This wash was repeated once.
Cells were then resuspended in a cocktail of fluorescently labeled antibodies. A cocktail of fluorescently labeled antibodies sufficient for all samples was prepared in FACs buffer. 100 μL of antibody per well was then added to a round-bottom 96-well plate. […]
Antibody binding was measured by flow cytometry using a BD LSR Fortessa Flow Cytometer. […] 100,000 events were recorded for each sample. Samples were analyzed by sequentially gating on the following populations: FSC-A vs. SSC-A, FSC-H vs. FSC-A, SSC-A vs. LIVE/DEAD, CD4 vs. CD8, and SSC vs. CD25. Mean fluorescence intensity (MFI) was calculated.

[3] = molecular target: T2, wild type full-length human TIGIT …; test: flow cytometry on CHO cells expressing human TIGIT, PE anti-human IgG Fc detection
Method: For the antibody binding assay, a frozen aliquot of human TIGIT-CHO cells was thawed at 37° C. and then transferred to a tube containing DPBS supplemented with 0.5% Bovine Serum Albumin and 0.05% Sodium Azide (FACS Buffer). Cells were centrifuged at 300 g for five minutes. The supernatant was discarded, and cells resuspended in FACS buffer were seeded in a 96-well U-bottom tissue culture plate at a density of 2×10⁵ cells per well in 50 μL. In a separate microplate, a 2× concentrated intermediate stock of each antibody was prepared. Antibodies were serially diluted 1-to-4 in FACS buffer. A total of 11 working dilutions ranging from 60 μg/mL to 0.000057 μg/mL were prepared. Fifty microlitres of each dilution were then transferred to the microplate containing human TIGIT-CHO cells. The cells were then incubated for 45 minutes at 4° C. […] After a 30-minute incubation on ice, the cells were washed twice with cold FACS Buffer, and the cells were analyzed by flow cytometry (BD LSR Fortessa Flow Cytometer). The data were analyzed using the FlowJo software by sequentially gating the FSC-A vs. SSC-A, and SSC-H vs. SSC-A. Mean fluorescence intensity (MFI) values for PE were calculated, and the data were plotted by GraphPad Prism software.

[4] = molecular target: T3, wild type full-length cynomolgus monkey TIGIT expressed on CHO cells (cynomolgus monkey, UniProt A0A7N9I9V4 89-312); test: flow cytometry, cynomolgus TIGIT CHO cells, geomean of 2 experiments
T3 construct: whole, on cells; also called cynomolgus TIGIT-CHO cells

[5] = molecular target: T2, wild type full-length human TIGIT …; test: flow cytometry, blocking of human CD155-Fc-PE binding to CHO cells expressing human TIGIT
Method: A 4× concentrated intermediate stock of each antibody was prepared in a microplate. Antibodies were serially diluted 1-to-4 in FACS buffer. […] Lastly, 25 μL of human TIGIT-CHO cells, prepared as described above, were added to each well. After a 30-minute incubation on ice, the cells were washed twice with cold FACS Buffer, and the cells were analyzed by flow cytometry (BD LSR Fortessa Flow Cytometer). The data were analyzed using the FlowJo software by sequentially gating on the FSC-A vs. SSC-A and SSC-H vs. SSC-A. Mean fluorescence intensity (MFI) values for PE were calculated, and the data were plotted by GraphPad Prism software and analyzed as described above.

[6] = molecular target: T4, full-length human FcγRIIIa variant F/F expressed on CHO cells (human, UniProt P08637 17-254); test: flow cytometry, human FcγRIIIa (F/F) CHO cells, 1 experiment
T4 construct: whole, on cells; also called human FcγRIIIa-CHO (variant F/F); human FcγRIIIa (F/F) CHO cells
Method: For the antibody binding assay, a frozen aliquot of human FcγRIIIa-CHO cells (variant V/V or variant F/F) was thawed at 37° C. and then transferred to a tube containing DPBS supplemented with 0.5% Bovine Serum Albumin and 0.05% Sodium Azide (FACS Buffer). Cells were centrifuged at 300 g for five minutes. The supernatant was discarded, and cells resuspended in FACS buffer were seeded in a 96-well U-bottom tissue culture plate at a density of 2×10⁵ cells per well in 50 μL. In a separate microplate, a 2× concentrated intermediate stock of each antibody was prepared. Antibodies were serially diluted 1-to-4 in FACS buffer. A total of 11 working dilutions ranging from 60 μg/mL to 0.000057 μg/mL were prepared. Fifty microlitres of each dilution were then transferred to the microplate containing human FcγRIIIa-CHO (variant V/V or variant F/F) cells. The cells were then incubated for 45 minutes at 4° C. […] After a 30-minute incubation on ice, the cells were washed twice with cold FACS Buffer, and the cells were analyzed by flow cytometry (BD LSR Fortessa Flow Cytometer). The data were analyzed using the FlowJo software by sequentially gating the FSC-A vs. SSC-A, and SSC-H vs. SSC-A. Mean fluorescence intensity (MFI) values for PE were calculated, and the data were plotted by GraphPad Prism software.

T3 sequence (A0A7N9I9V4 entry or part of it): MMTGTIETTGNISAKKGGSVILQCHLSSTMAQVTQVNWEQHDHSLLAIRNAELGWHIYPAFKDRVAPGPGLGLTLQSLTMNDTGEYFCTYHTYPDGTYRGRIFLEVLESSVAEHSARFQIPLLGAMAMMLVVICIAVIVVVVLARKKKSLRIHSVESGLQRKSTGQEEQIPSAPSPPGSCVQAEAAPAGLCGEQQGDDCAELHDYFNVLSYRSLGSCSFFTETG
T4 sequence (P08637 17-254, change not shown): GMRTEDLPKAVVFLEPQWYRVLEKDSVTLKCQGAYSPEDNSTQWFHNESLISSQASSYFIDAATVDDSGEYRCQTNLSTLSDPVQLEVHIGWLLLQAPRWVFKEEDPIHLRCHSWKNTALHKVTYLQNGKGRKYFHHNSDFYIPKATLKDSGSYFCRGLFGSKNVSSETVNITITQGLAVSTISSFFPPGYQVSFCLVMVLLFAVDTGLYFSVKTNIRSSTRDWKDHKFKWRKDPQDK

Kd [1] | EC50 (read off the curve) [2] | EC50 (read off the curve) [3] | EC50 [4] | IC50 (read off the curve) [5] | EC50 [6] | Binder
590 pM | ~0.3 µg/mL | ~0.03 µg/mL | – | – | – | anti-TIGIT×CD96 multispecific molecule BA127 (bispecific antibody, human IgG1, kappa, lambda, Anti-CD96 arm = BA139, anti-TIGIT arm = BA150; copies: 1 + 1 + 1 + 1) heavy 1: QVQLVQSGAEVKKPGASVKVSCKASGYTFTTYALHWVRQAPGQRLEWMGWINTGSGDTKYSQKFQGRVTITRDTSASTAYMELSSLRSEDTAVYYCARSLGVYYGMDVWGQGTLVTVSSASTKGPSVFPLAPSSKSTSGGTAALGCLVKDYFPEPVTVSWNSGALTSGVHTFPAVLQSSGLYSLSSVVTVPSSSLGTQTYICNVNHKPSNTKVDKRVEPKSCDKTHTCPPCPAPELLGGPDVFLFPPKPKDTLMISRTPEVTCVVVDVSHEDPEVKFNWYVDGVEVHNAKTKPREEQYNSTYRVVSVLTVLHQDWLNGKEYKCKVSNKALPAPIEKTISKAKGQPREPQVYTLPPSREEMTKNQVSLSCAVKGFYPSDIAVEWESNGQPENNYKTTPPVLDSDGSFFLVSKLTVDKSRWQQGNVFSCSVMHEALHNHYTQKSLSLSPG light 1: not shown heavy 2: EVQLVQSGAEVKKPGSSVKVSCKASGYTFASYGISWVRQAPGQGLEWMGGITPFFNRVDVAEKFQGRVTITADKSTSTAYIELSSLRSEDTAVYYCARDLRRGGVGDAFDIWGRGTLVTVSSASTKGPSVFPLAPSSKSTSGGTAALGCLVKDYFPEPVTVSWNSGALTSGVHTFPAVLQSSGLYSLSSVVTVPSSSLGTQTYICNVNHKPSNTKVDKRVEPKSCDKTHTCPPCPAPELLGGPDVFLFPPKPKDTLMISRTPEVTCVVVDVSHEDPEVKFNWYVDGVEVHNAKTKPREEQYNSTYRVVSVLTVLHQDWLNGKEYKCKVSNKALPLPEEKTISKAKGQPREPQVYTLPPSREEMTKNQVSLWCLVKGFYPSDIAVEWESNGQPENNYKTTPPVLDSDGSFFLYSKLTVDKSRWQQGNVFSCSVMHEALHNHYTQKSLSLSPG light 2: QSALTQPRSVSGSPGQSVTISCTGTSPDVGSHAYRSWYQQHPGKAPKLMIYEVSYRPSGVSNRFSGSKSGNTASLTISGLQAEDEADYYCSSYPPSSATVFGAGTKLTVLGQPKAAPSVTLFPPSSEELQANKATLVCLISDFYPGAVTVAWKADSSPVKAGVETTTPSKQSNNKYAASSYLSLTPEQWKSHRSYSCQVTHEGSTVEKTVAPTEC
– | – | – | 0.0534 µg/mL | ~0.01 µg/mL | 0.00262 µg/mL | anti-TIGIT monospecific antibody BA148 (antibody, human IgG1, lambda, IgG1; also called anti-TIGIT IgG1 antibody BA148) heavy: EVQLVQSGAEVKKPGSSVKVSCKASGYTFASYGISWVRQAPGQGLEWMGGITPFFNRVDVAEKFQGRVTITADKSTSTAYIELSSLRSEDTAVYYCARDLRRGGVGDAFDIWGRGTLVTVSSASTKGPSVFPLAPSSKSTSGGTAALGCLVKDYFPEPVTVSWNSGALTSGVHTFPAVLQSSGLYSLSSVVTVPSSSLGTQTYICNVNHKPSNTKVDKRVEPKSCDKTHTCPPCPAPELLGGPDVFLFPPKPKDTLMISRTPEVTCVVVDVSHEDPEVKFNWYVDGVEVHNAKTKPREEQYNSTYRVVSVLTVLHQDWLNGKEYKCKVSNKALPLPEEKTISKAKGQPREPQVYTLPPSREEMTKNQVSLTCLVKGFYPSDIAVEWESNGQPENNYKTTPPVLDSDGSFFLYSKLTVDKSRWQQGNVFSCSVMHEALHNHYTQKSLSLSPGK light: QSALTQPRSVSGSPGQSVTISCTGTSPDVGSHAYRSWYQQHPGKAPKLMIYEVSYRPSGVSNRFSGSKSGNTASLTISGLQAEDEADYYCSSYPPSSATVFGAGTKLTVLGQPKAAPSVTLFPPSSEELQANKATLVCLISDFYPGAVTVAWKADSSPVKAGVETTTPSKQSNNKYAASSYLSLTPEQWKSHRSYSCQVTHEGSTVEKTVAPTEC
